Data: patent US20240309087A1 (SHANGHAI JUNSHI BIOSCIENCES, published 2024)
Residue numbers refer to the chain shown, from its start.

T1: hCD112R mFC recombinant protein (human; murine, UniProt Q6DKI7 41-160)
T1 construct: range 41-160; expressed in 293E cells; also called hCD112R ECD mFC; hCD112R-ECD-mFC; not shown: murine IgG2a Fc domain (MX2-mFc vector)
T1 sequence (looked up): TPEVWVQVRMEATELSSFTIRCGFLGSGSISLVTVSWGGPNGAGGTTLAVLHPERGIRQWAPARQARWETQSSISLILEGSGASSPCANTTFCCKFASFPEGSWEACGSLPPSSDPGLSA

T2: human CD112R on Jurkat CD112R effector cells (human, UniProt Q6DKI7 1-326)
T2 sequence (looked up): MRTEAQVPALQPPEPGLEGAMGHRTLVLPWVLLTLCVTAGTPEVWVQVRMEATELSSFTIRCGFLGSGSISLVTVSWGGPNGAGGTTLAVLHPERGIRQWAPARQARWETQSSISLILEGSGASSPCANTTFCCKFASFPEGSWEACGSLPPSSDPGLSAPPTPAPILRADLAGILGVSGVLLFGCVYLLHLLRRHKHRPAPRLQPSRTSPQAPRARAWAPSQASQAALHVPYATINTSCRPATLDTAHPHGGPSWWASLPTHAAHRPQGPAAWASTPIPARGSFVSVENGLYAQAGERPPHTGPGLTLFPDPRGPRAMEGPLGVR

B1: Hu11 (antibody, IgG4, V domains shown)
VH: EVQLVESGGGLVKPGGSLRLSCAASGFTFSSYHMSWVRQAPGKGLELVSAINSNDINTYYLDTVKGRFTISRDIAKNSLYLQMNSLRAEDTAVYYCARHEDYYGFAMDYWGQGTLVTVSS
VL: DIQMTQSPSSLSASVGDRVTITCKASQSVSNDVAWYQQKPGKAPKLLIYYVSNRFTGVPSRFSGSGSGTDFTLTISSLQPEDFATYFCQQAYRSPWTFGQGTKLEIK
notes: humanized IgG4
B2: Hu51 (antibody, IgG4, V domains shown)
VH: B1 VH with D55G, I74N
VL: EIVMTQSPPTLSLSPGERVTLSCKASQSVSNDVAWYQEKPGQAPRLLIYYVSHRFTGIPARFSGSGSGTDFTLTISSLQPEDFAVYYCHQAYRSPWTFGQGTKLEIK
notes: humanized IgG4
B3: Hu26 (antibody, IgG4, V domains shown)
VH: EVQLVESGGGLVQPGGSLRLSCAASGFTFSSYHMSWVRQAPGKGLELVAAISRDGDSTYYPDTVKGRFTISRDNAKNSLYLQMNSLRAEDTAVYYCSRHEDYFGFAMDSWGQGTLVTVSS
VL: B1 VL with D1A, S30T, R54H, F55Y
notes: humanized IgG4
B4: Hu53 (antibody, IgG4, V domains shown)
VH: B1 VH with D55G, I74N
VL: B1 VL
notes: humanized IgG4
B5: Hu9 (antibody, IgG4, V domains shown)
VH: B1 VH
VL: B2 VL
notes: humanized IgG4; also called Hu-09
B6: Hu6 (antibody, IgG4, V domains shown)
VH: B1 VH with K13Q, S49A
VL: B2 VL with E38Q, H53N, Y87F, H89Q
notes: humanized IgG4; also called Hu-06
B7: Hu14 (antibody, IgG4, V domains shown)
VH: B3 VH with Q13K, A49S
VL: B1 VL with D1A, S30T, R54H, F55Y
notes: humanized IgG4
B8: Hu21 (antibody, IgG4, V domains shown)
VH: B3 VH with Q13K, A49S, N74D, K76E
VL: B2 VL
notes: humanized IgG4
B9: Hu15 (antibody, IgG4, V domains shown)
VH: B3 VH with Q13K, A49S
VL: B2 VL
notes: humanized IgG4
B10: Hu20 (antibody, IgG4, V domains shown)
VH: B3 VH with Q13K, A49S, N74D, K76E
VL: B1 VL with D1A, S30T, R54H, F55Y
notes: humanized IgG4
B11: Hu12 (antibody, IgG4, V domains shown)
VH: B1 VH
VL: B2 VL with E38Q, H53N, Y87F, H89Q
notes: humanized IgG4
B12: Hu27 (antibody, IgG4, V domains shown)
VH: B3 VH
VL: B2 VL
notes: humanized IgG4
B13: Hu56 (antibody, IgG4, V domains shown)
VH: B1 VH with K13Q, V37I, S49A, D55G, I74N
VL: B1 VL with D1A, S30T, R54H, F55Y
notes: humanized IgG4
B14: Hu3 (antibody, IgG4, V domains shown)
VH: B1 VH with K13Q, S49A
VL: B2 VL
notes: humanized IgG4; also called Hu-03

biological target: T1, hCD112R mFC recombinant protein; assay: ELISA, coated hCD112R-ECD-mFC; EC50 COM701/EC50 antibody
Description: (§1) A plate was coated with a hCD112R-ECD-mFC protein (1.5 μg/mL) at a fixed concentration, and the humanized anti-CD112R antibodies diluted in a gradient (initial concentration: 1 μg/mL, 2.5-fold gradient dilution, 12 concentration gradients in total) were added to bind to the antigen. HRP-conjugated goat anti-human antibody IgG (Fc specific) (Sigma, A0170) was subjected to a 5000-fold dilution and used as a detection antibody for detection. The color development was performed with 0.1 mg/mL TMB, and finally stopped with 2 M hydrochloric acid. The plate was read at 420 nm/620 nm. EC₅₀ was obtained by fitting with a four-parameter logistic regression (4PL) model. The […] were COM701 (anti-CD112R antibody, Compugen, obtained by expression and purification according to the sequences in US20180280506A1) and the anti-KLH hu-IgG4 antibody.

Binder | Relative activity (%)
B1 | 143%
B2 | 138%
B3 | 190%
B4 | 169%
B5 | 114%
B6 | 158%
B7 | 129%
B8 | 229%
B9 | 127%
B10 | 128%
B11 | 136%
B12 | 137%
B13 | 193%
B14 | 120%

biological target: T1, hCD112R mFC recombinant protein; assay: FACS competition, hCD112R mFc on CHO CD112 cells; IC50 COM701/IC50 antibody
Description: (§2) Cells CHO CD112 overexpressing human CD112 were co-incubated with a hCD112R mFc protein solution (5 μg/mL) prepared in a staining buffer (PBS+1% FBS), and the humanized anti-CD112R antibodies or the control antibodies at different concentrations (initial concentration: 100 μg/mL, 3-fold dilution, 10 concentration gradients) at 4° C. for 30 min. Unbound antibodies were then washed with a staining buffer and the cells were incubated with 1% (v/v) goat anti-mouse IgG Fc fluorescent secondary antibodies (Jackson ImmunoResearch) prepared in a staining buffer at 4° C. for 30 min in the dark. Finally, the cells were collected by using a flow cytometer (BD Canto II), and the fluorescent antibodies bound to the cell surface were detected. Raw data were analyzed by using FlowJo to obtain MFI values, and a four-parameter curve fitting was performed by using GraphPad Prism software to obtain IC₅₀ values. The positive control and the negative control were COM701 (anti-CD112R antibody, Compugen, obtained by expression and purification according to the sequences in US20180280506A1) and the anti-KLH hu-IgG4 antibody, respectively.

Binder | Relative activity (%)
B1 | 91.6%
B2 | 69.2%
B3 | 145%
B4 | 75.7%
B5 | 97.5%
B6 | 89.1%
B7 | 162%
B8 | 146%
B9 | 109%
B10 | 159%
B11 | 95.1%
B12 | 155%
B13 | 71%
B14 | 93.9%

biological target: T1, hCD112R mFC recombinant protein; assay: ELISA, coated hCD112R-ECD-mFC
Description: as §1

Binder | EC50
B1 | 0.00275 µg/mL
B2 | 0.00663 µg/mL
B3 | 0.00351 µg/mL
B4 | 0.00541 µg/mL
B5 | 0.00345 µg/mL
B6 | 0.00271 µg/mL
B7 | 0.00443 µg/mL
B8 | 0.0029 µg/mL
B9 | 0.00451 µg/mL
B10 | 0.00518 µg/mL
B11 | 0.00288 µg/mL
B12 | 0.00442 µg/mL
B13 | 0.00475 µg/mL
B14 | 0.00355 µg/mL

biological target: T1, hCD112R mFC recombinant protein; assay: FACS competition, hCD112R mFc on CHO CD112 cells
Description: as §2

Binder | IC50
B1 | 4.34 µg/mL
B2 | 3.48 µg/mL
B3 | 2.47 µg/mL
B4 | 3.18 µg/mL
B5 | 4.08 µg/mL
B6 | 4.46 µg/mL
B7 | 2.21 µg/mL
B8 | 2.44 µg/mL
B9 | 3.29 µg/mL
B10 | 2.25 µg/mL
B11 | 4.18 µg/mL
B12 | 2.31 µg/mL
B13 | 3.39 µg/mL
B14 | 4.24 µg/mL

biological target: T2, human CD112R on Jurkat CD112R effector …; assay: cell-based or functional assay

Binder | EC50, CD112R/CD112 reporter | Relative activity (%), EC50 COM701/EC50 antibody
B1 | 0.0529 µg/mL | 148%
B2 | 0.0225 µg/mL | 332%
B3 | 0.0353 µg/mL | 183%
B4 | 0.023 µg/mL | 314%
B5 | 0.0385 µg/mL | 195%
B6 | 0.0529 µg/mL | 128%
B7 | 0.0225 µg/mL | 215%
B8 | 0.0285 µg/mL | 179%
B9 | 0.0237 µg/mL | 209%
B10 | 0.038 µg/mL | 135%
B11 | 0.0542 µg/mL | 144%
B12 | 0.0328 µg/mL | 217%
B13 | 0.0243 µg/mL | 276%
B14 | 0.038 µg/mL | 189%
